Results reported in patent publication US20250163169.

B1: ADAM10 (protein)
chain: TTSAEKNTCQLYIQTDHLFFKYYGTREAVIAQISSHVKAIDTIYQTTDFSGIRNISFMVKRIRINTTADEKDPTNPFRFPNIGVEKFLELNSEQNHDDYCLAYVFTDRDFDDGVLGLAWVGAPSGSSGGICEKSKLYSDGKKKSLNTGIITVQNYGSHVPPKVSHITFAHEVGHNFGSPHDSGTECTPGESKNLGQKENGNYIMYARATSGDKLNNNKFSLCSIRNISQVLEKKRNNCFVESGQPICGNGMVEQGEECDCGYSDQCKDECCFDANQPEGRKCKLKPGKQCSPSQGPCCTAQCAFKSKSEKCRDDSDCAREGICNGFTALCPASDPKPNFTDCNRHTQVCINGQCAGSICEKYGLEECTCASSDGKDDKELCHVCCMKKMDPSTCASTGSVQWSRHFSGRTITLQPGSPCNDFRGYCDVFMRCRLVDADGPLARLKKAIFSPELYENIAE
B2: MMP2 (protein)
chain: YNFFPRKPKWDKNQITYRIIGYTPDLDPETVDDAFARAFQVWSDVTPLRFSRIHDGEADIMINFGRWEHGDGYPFDGKDGLLAHAFAPGTGVGGDSHFDDDELWTLGEGQVVRVKYGNADGEYCKFPFLFNGKEYNSCTDTGRSDGFLWCSTTYNFEKDGKYGFCPHEALFTMGGNAEGQPCKFPFRFQGTSYDSCTTEGRTDGYRWCGTTEDYDRDKKYGFCPETAMSTVGGNSEGAPCVFPFTFLGNKYESCTSAGRSDGKMWCATTANYDDDRKWGFCPDQGYSLFLVAAHEFGHAMGLEHSQDPGALMAPIYTYTKNFRLSQDDIKGIQELYGASPDIDLGTGPTPTLGPVTPEICKQDIVFDGIAQIRGEIFFFKDRFIWRTVTPRDKPMGPLLVATFWPELPEKIDAVYEAPQEEKAVFFAGNEYWIYSASTLERGYPKPLTSLGLPPDVQRVDAAFNWSKNKKTYIFAGDKFWRYNEVKKKMDPGFPKLIADAWNAIPDNLDAVVDLQGGGHSYFFKGAYYLKLENQSLKSVKFGSIKSDWLGC
B3: MMP12 (protein)
chain: GPVWRKHYITYRINNYTPDMNREDVDYAIRKAFQVWSNVTPLKFSKINTGMADILVVFARGAHGDFHAFDGKGGILAHAFGPGSGIGGDAHFDEDEFWTTHSGGTNLFLTAVHEIGHSLGLGHSSDPKAVMFPTYKYVDINTFRLSADDIRGIQSLYGDPKENQRLPNPDNSEPALCDPNLSFDAVTTVGNKIFFFKDRFFWLKVSERPKTSVNLISSLWPTLPSGIEAAYEIEARNQVFLFKDDKYWLISNLRPEPNYPKSIHSFGFPNFVKKIDAAVFNPRFYRTYFFVDNQYWRYDERRQMMDPGYPKLITKNFQGIGPKIDAVFYSKNKYYYFFQGSNQFEYDFLLQRITKTLKSNSWFGC
B4: MMP7 (protein)
chain: YSLFPNSPKWTSKVVTYRIVSYTRDLPHITVDRLVSKALNMWGKEIPLHFRKVVWGTADIMIGFARGAHGDSYPFDGPGNTLAHAFAPGTGLGGDAHFDEDERWTDGSSLGINFLYAATHELGHSLGMGHSSDPNAVMYPTYGNGDPQNFKLSQDDIKGIQKLYGKRSNSRKK

Columns and labels:
[1] = target: T1, 43-mer covering the stalk region of CD95L (residue 103 to residue 145)
T1 chain: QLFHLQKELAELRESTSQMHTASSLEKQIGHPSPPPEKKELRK

Recombinant Ig-CD95L = target: T2, Recombinant Ig-CD95L
T2 chain: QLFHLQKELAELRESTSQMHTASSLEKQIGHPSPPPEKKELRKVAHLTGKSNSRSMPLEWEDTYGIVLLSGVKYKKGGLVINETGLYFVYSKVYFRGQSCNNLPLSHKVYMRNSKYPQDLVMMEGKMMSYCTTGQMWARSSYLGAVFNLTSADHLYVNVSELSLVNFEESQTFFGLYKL

Row | Protein | percentage of degradation of the 43-mer (LC-MS/MS) [1] | cleavage of Ig-CD95L (western blotting) (Recombinant Ig-CD95L)
1 | B1 | more of 20% of cleavage | 
2 | B2 | more of 20% of cleavage | Using this Ig-CD95L, we showed that MMP2 and MMP3 can cleave CD95L
3 | B3 | more of 20% of cleavage | 
4 | B4 | more of 20% of cleavage | 
